The values that follow come from paper PMC3085511 (Nature, 2011).

Where two headings read alike, the source gives them in different places.

Test [1] addresses T1, mono-ubiquitin (UniProt P0CG48 1-76). The test is described as follows: ITC. (ITC needs no label: the signal is the heat of the interaction.)
Test [2] deals with T1, mono-ubiquitin. Put plainly: ITC. This is another data set of the same source.

Consider ARGRWACQSCTFENEAAAVLCSICERPRLA (domain or fragment, human, UniProt Q96EP0 350-379, looked up) [HOIP NZF1 (aa350–379)], for which the binding result with mono-ubiquitin [1] is on record as “binds”.

Regarding AASSLPSPLQPSWSCPSCTFINAPDRPGCEMCSTQRPCTWDPLAAAST (domain or fragment, human, UniProt Q9H0F6 340-387, looked up) [SHARPIN NZF (340–387)], the binding result in the test with mono-ubiquitin [2] is “binds”.

B1: SHARPIN (SHANK-associated RH domain-interacting protein) (natural protein, human, UniProt Q9H0F6 1-387, looked up)
chain: MAPPAGGAAAAASDLGSAAVLLAVHAAVRPLGAGPDAEAQLRRLQLSADPERPGRFRLELLGAGPGAVNLEWPLESVSYTIRGPTQHELQPPPGGPGTLSLHFLNPQEAQRWAVLVRGATVEGQNGSKSNSPPALGPEACPVSLPSPPEASTLKGPPPEADLPRSPGNLTEREELAGSLARAIAGGDEKGAAQVAAVLAQHRVALSVQLQEACFPPGPIRLQVTLEDAASAASAASSAHVALQVHPHCTVAALQEQVFSELGFPPAVQRWVIGRCLCVPERSLASYGVRQDGDPAFLYLLSAPREAPATGPSPQHPQKMDGELGRLFPPSLGLPPGPQPAASSLPSPLQPSWSCPSCTFINAPDRPGCEMCSTQRPCTWDPLAAAST
On to B1, for which the binding result with mono-ubiquitin [2] is listed as “binds”.
